# Experimental data reported in EP2341079A1 (Institut Pasteur, dated 2011).
# B1: C3 binder (designed binder)
# chain: SVKVKFLLNGEEKEVDTSKIRDVCRQGKNVKFLYNDNGKYGAGNVDEKDAPKELLDMLARAEREKK
# notes: Sac7d variant made with a His-tag in E. coli; monomeric by gel filtration; Used free, biotinylated on a streptavidin chip, labelled with AlexaFluor 680, or NHS-coupled to agarose, as said under assay; also called clone C3; not shown: RGS-(His)6 tag from vector pFP1001 (pQE30 derivative)
# Columns and labels:
# [1] = target: T1, hIgG (IgG pool from human serum containing hIgG1, hIgG2, hIgG3, hIgG4; Fluka reference number 56834); experiment: SPR (BIAcore 3000), hIgG on CM5 chip, binder injected, 1:1 global fit
# T1 construct: Polyclonal mixture from human serum; also called human IgG; Immunoglobulin G from human serum
# [2] = target: T2, hIgG1 (Sigma-Aldrich reference number I5029) (human, UniProt P01857-1 1-330 = IgG part); experiment: SPR, hIgG1 immobilised at low density, C3 injected 16-1000 nM, global fit (Fig. 6)
# T2 construct: Purified subclass, bought; also called Human IgG1; human IgG1 subclass
# [3] = target: streptavidin (UniProt P22629 37-163, limits assumed); experiment: ELISA (data not shown)
# [4] = target: neutravidin (UniProt P02701 25-152); experiment: ELISA (data not shown)
# Chain of neutravidin (P02701 25-152): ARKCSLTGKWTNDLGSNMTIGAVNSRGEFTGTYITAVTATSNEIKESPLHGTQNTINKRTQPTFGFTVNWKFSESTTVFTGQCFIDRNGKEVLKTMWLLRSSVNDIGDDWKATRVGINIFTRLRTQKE
# T2 sequence (P01857 other isoform, or with tags, fused parts or gaps): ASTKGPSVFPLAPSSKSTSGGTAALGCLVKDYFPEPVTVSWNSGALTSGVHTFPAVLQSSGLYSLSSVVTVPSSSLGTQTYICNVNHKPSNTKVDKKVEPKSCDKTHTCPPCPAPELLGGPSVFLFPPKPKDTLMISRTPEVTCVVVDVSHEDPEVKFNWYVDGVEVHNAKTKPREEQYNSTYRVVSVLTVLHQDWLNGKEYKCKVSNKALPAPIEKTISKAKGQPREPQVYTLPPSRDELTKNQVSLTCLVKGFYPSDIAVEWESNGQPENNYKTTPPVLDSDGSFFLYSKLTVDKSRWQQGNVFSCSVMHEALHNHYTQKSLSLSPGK
# Chain of streptavidin (P22629 37-163 limits assumed): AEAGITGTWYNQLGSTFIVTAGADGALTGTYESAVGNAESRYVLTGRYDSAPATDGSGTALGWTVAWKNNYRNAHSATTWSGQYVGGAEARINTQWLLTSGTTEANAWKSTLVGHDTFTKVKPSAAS
binder,measurement,setting,value
B1,Kd,[1],74 nM
same,koff,[1],0.066 s⁻¹
same,kon,[1],890000 M⁻¹ s⁻¹
same,Kd,[2],94 nM
same,koff,[2],0.051 s⁻¹
same,kon,[2],540000 M⁻¹ s⁻¹
same,binding result,[3],no binding
same,binding result,[4],no binding
